# Results reported in publication PMC3781937 (Molecular microbiology, 2013).
# T1: YaaT (His6-SUMO tag removed, in the co-purified complex) (Bacillus subtilis, UniProt P37541 1-275)
# T1 sequence (looked up): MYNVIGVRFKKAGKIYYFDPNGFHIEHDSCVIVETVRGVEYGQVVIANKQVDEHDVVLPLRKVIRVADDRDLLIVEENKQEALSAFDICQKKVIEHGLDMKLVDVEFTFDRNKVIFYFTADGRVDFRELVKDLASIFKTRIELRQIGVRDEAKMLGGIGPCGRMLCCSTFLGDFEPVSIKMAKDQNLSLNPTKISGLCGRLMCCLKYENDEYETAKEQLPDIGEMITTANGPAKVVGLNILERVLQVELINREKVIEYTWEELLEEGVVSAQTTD
# T2: T18-Spo0F (Bacillus subtilis, UniProt P06628 1-124)
# T2 sequence (looked up): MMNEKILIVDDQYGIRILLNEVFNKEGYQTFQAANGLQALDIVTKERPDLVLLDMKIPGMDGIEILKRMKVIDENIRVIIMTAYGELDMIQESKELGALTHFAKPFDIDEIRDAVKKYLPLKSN
# B1: YlbF (GST tag removed, in the co-purified complex) (natural protein, Bacillus subtilis, UniProt O34412 1-149, looked up)
# chain: MYATMESVRLQSEAQQLAEMILQSETAENYRNCYKRLQEDEEAGRIIRSFIKIKEQYEDVQRFGKYHPDYREISRKMREIKRELDLNDKVADFKRAENELQSILDEVSVEIGTAVSEHVKVPTGNPYFDGLSSCGGGCGSGGSCGCKVS
# Experiments:
# [1] = target: B1; test: SEC
# [2] = target: T1, YaaT (His6-SUMO tag removed, in the …); test: SEC
# two-hybrid = target: the molecule itself; test: two-hybrid
# T18-Spo0F = target: T2, T18-Spo0F; test: two-hybrid
binder,measurement,setting,value
"YmcA (GST tag removed) (natural protein, Bacillus subtilis, UniProt O31779 1-143, looked up) MTLYSKKDIVQQARNLAKMISETEEVDFFKRAEAQINENDKVSTIVNQIKALQKQAVNLKHYEKHEALKQVEAKIDALQEELEEIPVIQEFRDSQMEVNDLLQLVAHTISNQVTNEIITSTGGDLLKGETGSKVKHSNNSCSL",stoichiometry N,[1],2.2 fold
same,stoichiometry N,[2],2.2 fold
"YmcA-T25 (natural protein, Bacillus subtilis, UniProt O31779 1-143, looked up) MTLYSKKDIVQQARNLAKMISETEEVDFFKRAEAQINENDKVSTIVNQIKALQKQAVNLKHYEKHEALKQVEAKIDALQEELEEIPVIQEFRDSQMEVNDLLQLVAHTISNQVTNEIITSTGGDLLKGETGSKVKHSNNSCSL","β-galactosidase activity, ratio above the T18–T25 negative control",two-hybrid,48.3 ratio above the T18–T25 negative control
same,"β-galactosidase activity, ratio above the T18–T25 negative control",T18-Spo0F,11.3 ratio above the T18–T25 negative control
B1,binding result,[2],binds
